Laboratory results as given in patent US20230174653A1.
Like-named read-outs stand apart in the source and are kept apart here.

T1: B7-H3 (CD276), endogenous on tumor cells (LM7, A549, U373) (UniProt Q5ZPR3)
T1 sequence (looked up): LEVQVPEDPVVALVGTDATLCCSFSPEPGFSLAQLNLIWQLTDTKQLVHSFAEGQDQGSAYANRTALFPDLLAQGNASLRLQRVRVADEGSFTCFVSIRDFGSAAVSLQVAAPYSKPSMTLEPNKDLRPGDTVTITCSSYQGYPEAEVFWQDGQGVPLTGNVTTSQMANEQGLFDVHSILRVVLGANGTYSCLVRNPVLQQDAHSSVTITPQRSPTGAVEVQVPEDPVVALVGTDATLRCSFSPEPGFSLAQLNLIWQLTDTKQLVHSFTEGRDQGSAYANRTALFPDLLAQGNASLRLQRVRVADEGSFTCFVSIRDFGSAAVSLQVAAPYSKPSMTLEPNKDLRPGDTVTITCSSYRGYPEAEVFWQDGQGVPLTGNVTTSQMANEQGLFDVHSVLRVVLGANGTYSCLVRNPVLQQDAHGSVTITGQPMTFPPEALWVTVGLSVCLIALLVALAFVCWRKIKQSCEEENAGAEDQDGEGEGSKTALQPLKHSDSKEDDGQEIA

B1: CD28/CD28 B7-H3-CAR (second generation B7-H3-CAR with MGA271-derived scFv, CD28 hinge/transmembrane domain, CD28 costimulatory domain and CD3ζ), expressed on … (protein)
chain: EVQLVESGGGLVQPGGSLRLSCAASGFTFSSFGMHWVRQAPGKGLEWVAYISSDSSAIYYADTVKGRFTISRDNAKNSLYLQMNSLRDEDTAVYYCGRGRENIYYGSRLDYWGQGTTVTVSSGGGGSGGGGSGGGGSDIQLTQSPSFLSASVGDRVTITCKASQNVDTNVAWYQQKPGKAPKALIYSASYRYSGVPSRFSGSGSGTDFTLTISSLQPEDFATYYCQQYNNYPFTFGQGTKLEIKIEVMYPPPYLDNEKSNGTIIHVKGKHLCPSPLFPGPSKPFWVLVVVGGVLACYSLLVTVAFIIFWVRSKRSRLLHSDYMNMTPRRPGPTRKHYQPYAPPRDFAAYRSRVKFSRSADAPAYQQGQNQLYNELNLGRREEYDVLDKRRGRDPEMGGKPRRKNPQEGLYNELQKDKMAEAYSEIGMKGERRRGKGHDGLYQGLSTATKDTYDALHMQALPPR
B2: CD28/4-1BB B7-H3-CAR (second generation B7-H3-CAR with MGA271-derived scFv, CD28 hinge/transmembrane domain, 4-1BB costimulatory domain and CD3ζ), expressed on … (protein)
chain: EVQLVESGGGLVQPGGSLRLSCAASGFTFSSFGMHWVRQAPGKGLEWVAYISSDSSAIYYADTVKGRFTISRDNAKNSLYLQMNSLRDEDTAVYYCGRGRENIYYGSRLDYWGQGTTVTVSSGGGGSGGGGSGGGGSDIQLTQSPSFLSASVGDRVTITCKASQNVDTNVAWYQQKPGKAPKALIYSASYRYSGVPSRFSGSGSGTDFTLTISSLQPEDFATYYCQQYNNYPFTFGQGTKLEIKIEVMYPPPYLDNEKSNGTIIHVKGKHLCPSPLFPGPSKPFWVLVVVGGVLACYSLLVTVAFIIFWVKRGRKKLLYIFKQPFMRPVQTTQEEDGCSCRFPEEEEGGCELRVKFSRSADAPAYQQGQNQLYNELNLGRREEYDVLDKRRGRDPEMGGKPRRKNPQEGLYNELQKDKMAEAYSEIGMKGERRRGKGHDGLYQGLSTATKDTYDALHMQALPPR

Legend:
[1] = target: T1, B7-H3 (CD276), endogenous on tumor cells (LM7, A549, U373); test: cell-based or functional assay
[2] = target: T1, B7-H3 (CD276), endogenous on tumor cells (LM7, A549, U373); test: cell-based or functional assay; remark: listed apart in the source

Molecule	cytolysis of LM7 tumor cells, impedance assay (xCelligence), 1st stimulation, 0.5:1 T-cell to tumor cell ratio [1]	cytolysis of LM7 tumor cells, impedance assay (xCelligence), 1st stimulation [1]	cytolysis of LM7 tumor cells, impedance assay (xCelligence), 1st stimulation, 0.5:1 T-cell to tumor cell ratio [2]
CD8α/4-1BB B7-H3-CAR (second generation B7-H3-CAR with MGA271-derived scFv, CD8α hinge/transmembrane domain, 4-1BB costimulatory domain and CD3ζ), expressed on human T cells	100%		
CD8α/CD28 B7-H3-CAR (second generation B7-H3-CAR with MGA271-derived scFv, CD8α hinge/transmembrane domain, CD28 costimulatory domain and CD3ζ), expressed on human T cells	100%	100%	
CD8α/CD28.4-1BB third generation (3G) B7-H3-CAR (4-1BB signaling domain inserted into the CD8α/CD28-CAR), expressed on human T cells		100%	
B1			100%
B2			100%
